EP4671269A1
Values joined by “and” are separate entries in the source; they are usually repeats but may differ in a detail not shown here. Equal entries are not always repeated.

How the values were obtained:
Details in all cases: remark: other sources report otherwise
TGF-β2, P61812 [1] = biological target: T1, TGF-β2, P61812; test: indirect ELISA; […] diluted 1:9
T1 chain: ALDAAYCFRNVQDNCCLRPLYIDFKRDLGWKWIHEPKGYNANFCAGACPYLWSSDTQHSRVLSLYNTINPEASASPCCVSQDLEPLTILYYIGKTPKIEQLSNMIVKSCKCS

TGF-β2, P61812 [2] = biological target: T1, TGF-β2, P61812; test: indirect ELISA; […] diluted 1:81
TGF-β2, P61812 [3] = biological target: T1, TGF-β2, P61812; test: indirect ELISA; 0 (blank)
TGF-β2, P61812 [4] = biological target: T1, TGF-β2, P61812; test: indirect ELISA; […] diluted 1:3
TGF-β2, P61812 [5] = biological target: T1, TGF-β2, P61812; test: indirect ELISA; […] diluted 1:27
TGF-β2, P61812 [6] = biological target: T1, TGF-β2, P61812; test: indirect ELISA; […] diluted 1:729
TGF-β2, P61812 [7] = biological target: T1, TGF-β2, P61812; test: indirect ELISA; […] diluted 1:243
TGF-β2, P61812 [8] = biological target: T1, TGF-β2, P61812; test: indirect ELISA, TGF-β2 coated
TGF-β2, P61812 [9] = biological target: T1, TGF-β2, P61812; test: indirect ELISA; […]

OD450 (TGF-β2, P61812 [1]): 0.908 OD and 0.925 OD
OD450 (TGF-β2, P61812 [2]): 0.253 OD and 0.211 OD
OD450 (TGF-β2, P61812 [3]): 0.176 OD and 0.16 OD
OD450 (TGF-β2, P61812 [4]): 1.34 OD and 1.32 OD
OD450 (TGF-β2, P61812 [5]): 0.432 OD and 0.462 OD
OD450 (TGF-β2, P61812 [6]): 0.184 OD and 0.152 OD
OD450 (TGF-β2, P61812 [7]): 0.202 OD and 0.158 OD
EC50 (TGF-β2, P61812 [8]): 1.03 nM
OD450 (TGF-β2, P61812 [9]): 1.46 OD and 1.44 OD
B1: TGF-βRII-mFc, P37173 24-159 (Fc fusion, UniProt P37173 24-159, looked up, not shown: a dimerising Fc or GST)
chain: IPPHVQKSVNNDMIVTDNNGAVKFPQLCKFCDVRFSTCDNQKSCMSNCSITSICEKPQEVCVAVWRKNDENITLETVCHDPKLPYHDFILEDAASPKCIMKEKKKPGETFFMCSCSSDECNDNIIFSEEYNTSNPD
